Data: patent USRE46585 (LABORATOIRE FRANCAIS DU FRACTIONNEMENT ET DES …, dated 2017)
Where two headings read alike, the source gives them in different places.

Legend:
FcRn-p3 fusion protein [1] = biological target: T1, FcRn-p3 fusion protein (human, UniProt P55899 24-297; P61769 21-119); assay: phage ELISA pH6
T1 construct: baculovirus expressed; coated on ELISA wells; not shown: amino terminal part of bacteriophage p3 protein and CVDE protein

FcRn-p3 fusion protein [2] = biological target: T1, FcRn-p3 fusion protein; assay: phage ELISA pH6; remark: listed apart in the source
FcRn-p3 fusion protein [3] = biological target: T1, FcRn-p3 fusion protein; assay: phage ELISA pH6 (est.)
FcRn-p3 fusion protein [4] = biological target: T1, FcRn-p3 fusion protein; assay: phage ELISA pH6 (est.); remark: listed apart in the source
FcRn-p3 fusion protein [5] = biological target: T1, FcRn-p3 fusion protein; assay: phage ELISA pH6 (est.); remark: listed apart in the source
FcRn-p3 fusion protein [6] = biological target: T1, FcRn-p3 fusion protein; assay: ELISA pH6, soluble Fc on coated FcRn-p3
[7] = biological target: T2, recombinant soluble human FcRn (human, UniProt P55899 24-297; P61769 21-119); assay: SPR pH6, immobilized FcRn, steady state
T2 construct: amine-coupled to the SPR chip

FcRn-p3 fusion protein [8] = biological target: T1, FcRn-p3 fusion protein; assay: phage ELISA pH6; remark: listed apart in the source
FcRn-p3 fusion protein [9] = biological target: T1, FcRn-p3 fusion protein; assay: phage ELISA pH6; remark: listed apart in the source

T1 sequence (P55899 24-297, chain 1 of 2): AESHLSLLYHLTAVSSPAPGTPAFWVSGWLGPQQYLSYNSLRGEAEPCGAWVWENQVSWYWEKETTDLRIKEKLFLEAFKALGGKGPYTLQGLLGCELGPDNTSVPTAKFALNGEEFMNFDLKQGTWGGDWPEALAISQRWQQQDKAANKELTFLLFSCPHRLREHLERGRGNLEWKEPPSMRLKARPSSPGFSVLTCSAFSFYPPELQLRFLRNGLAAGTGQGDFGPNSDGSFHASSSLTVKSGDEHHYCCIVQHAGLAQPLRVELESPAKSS
T1 sequence (P61769 21-119, chain 2 of 2): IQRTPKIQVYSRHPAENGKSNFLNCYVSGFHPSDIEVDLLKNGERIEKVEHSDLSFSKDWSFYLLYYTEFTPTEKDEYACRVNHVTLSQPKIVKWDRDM
T2 sequence (P55899 24-297, chain 1 of 2): as the sequence (P55899 24-297, chain 1 of 2) above
T2 sequence (P61769 21-119, chain 2 of 2): as the sequence (P61769 21-119, chain 2 of 2) above

Binder | Ratio/Fc-H (FcRn-p3 fusion protein [1]) | Ratio/Fc-H (FcRn-p3 fusion protein [2]) | Ratio/FWT (FcRn-p3 fusion protein [3]) | Ratio/Fc-WT (FcRn-p3 fusion protein [4]) | phage-ELISA ratio/WT (FcRn-p3 fusion protein [5]) | Fc-rec-ELISA Ratio/WT (FcRn-p3 fusion protein [6]) | SPR Ratio/Fc-WT (Fc-WT Kd / variant Kd) [7] | Ratio/Fc-WT (FcRn-p3 fusion protein [8]) | phage-ELISA Ratio/Fc-WT (FcRn-p3 fusion protein [9])
C6A_72 (other, EU numbering) CPPCPAPELLGGPSVFLFPPKPKDALMISRTPEVTCVVVDVSHEDPEVKFNWYVDGVEVHNAKTKPREEQYNSTYRVVSVLTVLHQDWLNGKEYKCKVSNKALPAPIEKTISKAKGQPREPQVYTLPPSRDELTKNQVSLTCLVKGFYPSDIAVEWESNGQPEKNYKTTPPVLDSDGSFFLYSKLTVDKSRWQQGNVFSCSVMHEALHYHYTQKSLSLSPGK | 8 fold | 8 fold | 25.7 fold | 25.7 fold | 25.7 fold |  |  |  | 
T5A_81 (other, EU numbering) CPPCPAPELLGGPSVFLFPPKPKDTLMISRTPEVTCVVEDVSHEDPEVKFNWYVDGVEVHNAKTKPREEQYNSTYRVVSVLTVLHQDWLNGKEYKCKVSNKALPAPIEKTISKAKGQPREPQVYTLPPSRDELTKNQVSLTCLVKGFYPSDIVVEWESNGQPENNYKTTPPVLDSDGSFFLYSKLTVDKSKWQQGNVFSCSVMHEALHNHYTQKSLSLSPGK | 4.6 fold | 4.6 fold | 14.9 fold | 14.9 fold | 14.9 fold |  |  |  | 
S3A_07 (soluble recombinant Fc polypeptide) (other, EU numbering; E. coli periplasmic expression; not shown: C-terminal 6xHis tag and V5 tag) CPPCPAPELLGGPSVFLFPPKPKDTLMISRTPEVTCVVEDVSHEDPEVKFNWYVDGVEVHNAKTKPREEQYNSTYRVVSVLTVLHQDWLNGKEYKCKVSNKALPAPIEKTISKAKGQPREPQVYTLPPSRDELTKNQVSLTCLVKGFYPSDIVVEWGSNGQPENNYKTTPPVLDSDGSFFLYSKLTVDKSRWQQGNVFSCSVMHEALHNHYTQKSLSLSPGK |  |  |  |  |  | 25.3 fold | 5.2 fold |  | 
S3A_07 (other, EU numbering) CPPCPAPELLGGPSVFLFPPKPKDTLMISRTPEVTCVVEDVSHEDPEVKFNWYVDGVEVHNAKTKPREEQYNSTYRVVSVLTVLHQDWLNGKEYKCKVSNKALPAPIEKTISKAKGQPREPQVYTLPPSRDELTKNQVSLTCLVKGFYPSDIVVEWGSNGQPENNYKTTPPVLDSDGSFFLYSKLTVDKSRWQQGNVFSCSVMHEALHNHYTQKSLSLSPGK |  |  |  |  |  |  |  | 3.5 fold | 3.5 fold
